Measurements: publication PMC8902620, “Oligomerization of DNA replication regulatory protein RADX is essential to maintain replication fork stability” (The Journal of Biological Chemistry, 2022)
Changes are numbered by the printed parent chain. In names and notes the source's numbering stands.

B1: MBP-RADX (maltose-binding protein-tagged RADX) (natural protein, human, UniProt Q6NSI4 1-855, looked up)
chain: MSGESGQPEAGPSHAGLDWPNPERNRAGVPGGVIRRAGSQGPRSWIQKVLEQIMDSPRQCVTPSEVVPVTVLAVQRYLLEDEPRDTVPKPPLYCYDVTISDGVYQEKCYLDPSLNSLVYQNILKVGIQMRISRVSCLYNEKRIGQGILCIDNVHCGETSDSISLETPFRNRAHQEKPERPLRGGKSHYLALWNNEDPYGDIWLTDKQPEEHNFSDTKIISLSHLEMTWTNRRNFPALLVRILHKSKLRYYGKPDKKMIEPYQTFLEVADSSGTVSVIMWNALCPEWYKSLRVGLVLLLQDYSVKKSYPFRIQPVPVDPQIKLISTMEICLNLRDPPTNIIIIPEKQVKPEWRLPKLNHRFTTRSELDDMPENCICDVIGLLVFVGRVQRSKKKENREDFWSYRWIHIADGTSEQPFIVELFSTSQPEIFENIYPMAYFVCTQLKVVRNDNQVPKLLYLTTTNESGVFITGHRGQPYTYDAKVKNFIQWIRTKSDSGEQKNMVIGGYYPYPPVPETFSKYSSSIKVESLLTAISEVRKEIEDLQYREQKRIAIQGIITAIKYIPHSSATESASASETLRNANRPSTSQAARVEIQERNGKRHQDDEPVNSQYFQTTSTNLSLSNKIRILQGPHANPVAVPQPGASVQTKGIKPGMPSIFNRRANINANLQGKARKTISDRWESQLWREKKFGLIDHLHYSRVYPESIPRKFMFEHRKFLSDQYNSQPAKYVPPEGRPPKLDDFKSARSLGHFEVTILGLNHEIAIDVAFLPMYCPEDIRTSQIDTLLTSMNYSCAYPQDTTGNDRLPGPRAVAGDIIKAATELDRVHIVGILDICNLGNNKVEVYLHKIYSPENTS
notes: RADX (cxorf57), human; also called MBP-tagged RADX; cxorf57; source: insect cells, purified
B2: mCherry-FLAG-RADX N-terminal fragment (2–675) (domain or fragment, human, UniProt Q6NSI4 2-675, looked up)
chain: SGESGQPEAGPSHAGLDWPNPERNRAGVPGGVIRRAGSQGPRSWIQKVLEQIMDSPRQCVTPSEVVPVTVLAVQRYLLEDEPRDTVPKPPLYCYDVTISDGVYQEKCYLDPSLNSLVYQNILKVGIQMRISRVSCLYNEKRIGQGILCIDNVHCGETSDSISLETPFRNRAHQEKPERPLRGGKSHYLALWNNEDPYGDIWLTDKQPEEHNFSDTKIISLSHLEMTWTNRRNFPALLVRILHKSKLRYYGKPDKKMIEPYQTFLEVADSSGTVSVIMWNALCPEWYKSLRVGLVLLLQDYSVKKSYPFRIQPVPVDPQIKLISTMEICLNLRDPPTNIIIIPEKQVKPEWRLPKLNHRFTTRSELDDMPENCICDVIGLLVFVGRVQRSKKKENREDFWSYRWIHIADGTSEQPFIVELFSTSQPEIFENIYPMAYFVCTQLKVVRNDNQVPKLLYLTTTNESGVFITGHRGQPYTYDAKVKNFIQWIRTKSDSGEQKNMVIGGYYPYPPVPETFSKYSSSIKVESLLTAISEVRKEIEDLQYREQKRIAIQGIITAIKYIPHSSATESASASETLRNANRPSTSQAARVEIQERNGKRHQDDEPVNSQYFQTTSTNLSLSNKIRILQGPHANPVAVPQPGASVQTKGIKPGMPSIFNRRANINANLQGKARKT
notes: also called pTM59; source: HEK293T, purified (anti-FLAG M2 beads, 3x FLAG peptide, Superdex 200)
B3: mCherry-FLAG-RADX NHEI to AAAA (residues 759–762) (natural protein, human, UniProt Q6NSI4 1-855, looked up)
chain: B1 chain with N759A, H760A, E761A, I762A
notes: also called pTM109; source: HEK293T, purified (anti-FLAG M2 beads, 3x FLAG peptide, Superdex 200)
B4: mCherry-FLAG-RADX K840D (natural protein, human, UniProt Q6NSI4 1-855, looked up)
chain: B1 chain with K840D
notes: RADX, human, full length with one point mutation; also called pTM155; source: HEK293T, purified (anti-FLAG M2 beads, 3x FLAG peptide, Superdex 200)
B5: mCherry-FLAG-RADX KVEV to DVKV (residues 840–843) (natural protein, human, UniProt Q6NSI4 1-855, looked up)
chain: B1 chain with K840D, E842K
notes: The results print residues 840 to 844, the methods 840–843; also called pTM113; source: HEK293T, purified (anti-FLAG M2 beads, 3x FLAG peptide, Superdex 200)
B6: mCherry-FLAG-RADX K847D (natural protein, human, UniProt Q6NSI4 1-855, looked up)
chain: B1 chain with K847D
notes: RADX, human, full length with one point mutation; also called K847D RADX; pTM157; source: HEK293T, purified (anti-FLAG M2 beads, 3x FLAG peptide, Superdex 200)
B7: mCherry-FLAG-RADX KIY to DIA (residues 847–849) (natural protein, human, UniProt Q6NSI4 1-855, looked up)
chain: B1 chain with K847D, Y849A
notes: also called pTM114; source: HEK293T, purified (anti-FLAG M2 beads, 3x FLAG peptide, Superdex 200)
B8: mCherry-FLAG-RADX E842K (natural protein, human, UniProt Q6NSI4 1-855, looked up)
chain: B1 chain with E842K
notes: RADX, human, full length with one point mutation; also called E842K RADX; pTM156; source: HEK293T, purified (anti-FLAG M2 beads, 3x FLAG peptide, Superdex 200)
B9: mCherry-FLAG-RADX Y849A (natural protein, human, UniProt Q6NSI4 1-855, looked up)
chain: B1 chain with Y849A
notes: RADX, human, full length with one point mutation; also called pTM158; source: HEK293T, purified (anti-FLAG M2 beads, 3x FLAG peptide, Superdex 200)
B10: mCherry-FLAG-RADX domain 5 (744–855) (domain or fragment, human, UniProt Q6NSI4 744-855, looked up)
chain: SARSLGHFEVTILGLNHEIAIDVAFLPMYCPEDIRTSQIDTLLTSMNYSCAYPQDTTGNDRLPGPRAVAGDIIKAATELDRVHIVGILDICNLGNNKVEVYLHKIYSPENTS
notes: also called pTM44; source: HEK293T, purified (anti-FLAG M2 beads, 3x FLAG peptide, Superdex 200)
B11: mCherry-FLAG-RADX C-terminal fragment (675–855) (domain or fragment, human, UniProt Q6NSI4 675-855, looked up)
chain: TISDRWESQLWREKKFGLIDHLHYSRVYPESIPRKFMFEHRKFLSDQYNSQPAKYVPPEGRPPKLDDFKSARSLGHFEVTILGLNHEIAIDVAFLPMYCPEDIRTSQIDTLLTSMNYSCAYPQDTTGNDRLPGPRAVAGDIIKAATELDRVHIVGILDICNLGNNKVEVYLHKIYSPENTS
notes: also called pTM67; source: HEK293T, purified (anti-FLAG M2 beads, 3x FLAG peptide, Superdex 200)

Biological target: the molecule itself
Test: SEC; purified MBP-RADX on Superdex 200 Increase 10/300 GL; peak fractions pooled and reapplied; 50 mM Tris pH 7.5, 300 mM NaCl, 10% glycerol, 1 mM DTT; size by molecular weight standards
Details: not given

Row | Binder | stoichiometry N
1 | B1 | ~2

These binders were tested against T1, full-length RADX, wild type, tagged with mCherry-FLAG or with GFP-HA (human, UniProt Q6NSI4 1-855) (assay: co-IP; purified mCherry-FLAG proteins mixed with purified GFP-HA-RADX and captured on GFP-trap magnetic agarose beads, 1 h at 4 °C; 50 mM Tris pH 7.5, 250 mM NaCl, 10% glycerol, 0.05% NP-40; immunoblot). Details: both partners purified.
T1 construct: RADX (cxorf57), human, full length; Two differently tagged copies of the same protein, written as one molecule; The GFP-HA copy is the one captured on GFP beads in the tests with purified proteins; The mCherry-FLAG copy is the one fished out there, and is the bait of the FLAG co-IP from lysate; also called mCherry-FLAG-RADX; m-Cherry-FLAG-RADX; source: HEK293T, transfected, in lysate; HEK293T, …

Row | Binder | binding result
2 | B2 | binds
3 | B3 | binds
4 | B4 | binds
5 | B5 | binds
6 | B6 | binds
7 | B7 | binds
8 | B8 | binds
9 | B9 | binds
10 | B10 | binds
11 | B11 | binds
